Source: patent US20240092867A1 (UNIVERSITY OF CHICAGO, published 2024)

T1: recombinant human VEGF-A145 (human, UniProt P15692-6 27-171)
T1 sequence (looked up): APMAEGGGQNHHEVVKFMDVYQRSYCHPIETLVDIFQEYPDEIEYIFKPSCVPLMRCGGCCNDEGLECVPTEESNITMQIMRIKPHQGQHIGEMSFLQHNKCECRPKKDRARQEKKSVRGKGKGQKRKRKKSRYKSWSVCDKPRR

T2: recombinant laminin α3 2928-3150 protein (linker domain and LG4 domain) (human, UniProt Q16787 2928-3150)
T2 construct: range 2928-3150; Made in HEK-293F cells; also called laminin alpha 3 LG domain recombinant protein
T2 sequence: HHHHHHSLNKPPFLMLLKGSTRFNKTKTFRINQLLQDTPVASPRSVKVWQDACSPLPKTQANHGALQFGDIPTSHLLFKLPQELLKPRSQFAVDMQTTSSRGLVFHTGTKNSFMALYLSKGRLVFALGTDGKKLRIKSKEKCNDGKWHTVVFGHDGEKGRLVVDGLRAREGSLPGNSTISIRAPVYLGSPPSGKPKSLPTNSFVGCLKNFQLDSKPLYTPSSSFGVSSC

B1: Arg substituted HBD (peptide)
peptide: YIGLKDSKSPSELSSIASQVKYAC
notes: not in the list MOLECULES; also called vWF A1 HBD with Arg substituted by Ser; mutated HBD peptide
B2: vascular endothelial growth factor (VEGF)-A121 (ligand, human, UniProt P15692-9 27-147, looked up)
chain: APMAEGGGQNHHEVVKFMDVYQRSYCHPIETLVDIFQEYPDEIEYIFKPSCVPLMRCGGCCNDEGLECVPTEESNITMQIMRIKPHQGQHIGEMSFLQHNKCECRPKKDRARQEKCDKPRR
notes: mature; Purchased in mature form, not glycosylated
B3: placental growth factor (PlGF)-1 (ligand, human, UniProt P49763-2 19-149, looked up)
chain: LPAVPPQQWALSAGNGSSEVEVVPFQEVWGRSYCRALERLVDVVSEYPSEVEHMFSPSCVSLLRCTGCCGDENLHCVPVETANVTMQLLKIRSGDRPSYVELTFSQHVRCECRPLREKMKPERCGDAVPRR
notes: mature; Purchased in mature form

Key:
[1] = target: B2; assay: ELISA; peptides and vWF forms coated at 50 nM, VEGF-A in solution, detected with anti-VEGF-A antibody [panel D]
Experimental: (§1) (A) Diagram of exon sequence of VEGF-A showing inclusion (+) or exclusion (−) of heparin binding domain exons for the different VEGF-A isoforms. […] Bound VEGF-A was detected using a specific antibody for VEGF-A (n=4, mean±SD). Statistical comparisons were done using ANOVA with Tukey's test compared with BSA control. **p<0.01.
(§2) ELISA was performed as previously reported1. […] After blocking with 2% BSA solution containing PBS-T, 1 μg/mL of recombinant human VEGF-A121 (PeproTech), recombinant human VEGF-A145 (R & D Systems), or recombinant human VEGF-A165 (PeproTech) was added. Bound VEGF-A was detected with 1 μg/mL of mouse anti-human VEGF-A antibody (clone: 26503, R & D systems). After 60 min of incubation, horseradish peroxidase (HRP) conjugated goat anti-mouse antibody (1:2000 dilution, Dako) was added and incubated for another 60 min. Color development and the absorbance measurement were done as described above.

[2] = target: T1, recombinant human VEGF-A145; assay: ELISA; peptides and vWF forms coated at 50 nM, VEGF-A in solution, detected with anti-VEGF-A antibody [panel C]
Experimental: as §1, §2

[3] = target: T3, vascular endothelial growth factor (VEGF)-A165 (human, UniProt P15692-4 27-191); assay: ELISA; peptides and vWF forms coated at 50 nM, VEGF-A in solution, detected with anti-VEGF-A antibody [panel B]
T3 construct: mature; Purchased in mature form, not glycosylated
Experimental: as §1, §2

[4] = target: T4, pro-peptide containing recombinant vWF (UniProt P04275 23-2813); assay: ELISA; peptides and vWF forms coated at 50 nM, VEGF-A in solution, detected with anti-VEGF-A antibody [panel D]
T4 construct: also called immature, pro-peptide-containing recombinant vWF
Experimental: as §1, §2

[5] = target: T5, recombinant human vWF A2 domain (human, UniProt P04275 1498-1665); assay: as above
T5 construct: domain: A2
Experimental: as §1, §2

[6] = target: T6, recombinant human vWF A3 domain (human, UniProt P04275 1683-1874); assay: as above
T6 construct: domain: A3
Experimental: as §1, §2

[7] = target: T2, recombinant laminin α3 2928-3150 …; assay: ELISA, LG domain protein coated
Experimental: Affinity of GFs against recombinant laminin LG domains. ELISA plates were coated with 1 μg/mL (A) α3₂₉₂₈₋₃₁₅₀, (B) α4₈₂₆₋₁₈₁₆, or (C) α5₃₀₂₆₋₃₄₈₂ and further incubated with 1 μg/mL of VEGF-A165, VEGF-A121, PlGF-2, PlGF-1, PDGF-BB, or FGF-2 solution. Bound GFs were detected using a specific antibody for each GF (n=4, mean±SEM). Statistical analyses were done using the Mann-Whitney U test by comparing the signals obtained from the laminin domain- and the BSA-coated wells. *p<0.05, **p<0.01. […] A SPR chip was functionalized with the laminin α3₂₉₂₈₋₃₁₅₀ recombinant protein (˜1000 RU), and each GF was flowed over the chip at indicated concentrations. Curves represent the specific responses (in RU) to laminin. Experimental curves were fitted with Langmuir binding kinetics.
ELISA tests were performed as described above. […] 1 μg/mL of BSA served as non-binding protein control. After blocking with 2% BSA PBS-0.05% Tween 20 (PBS-T) solution, 1 μg/mL of the recombinant human proteins (VEGF-A121, VEGF-A165, PlGF-1, PlGF-2, PDGF-BB or FGF-2) or 10 μg/mL of biotinylated heparin (Sigma-Aldrich) were added. Bound GF was detected with biotinylated antibodies for human VEGF, PlGF, PDGF-BB, or FGF-2 (R&D Systems). The antibodies were detected by streptavidin-HRP (R&D Systems).

human plasma-derived vWF = target: T7, human plasma-derived vWF (human, UniProt P04275 764-2813); assay: ELISA, GF coated 50 nM, vWF 1 µg/mL
T7 construct: mature; also called plasma-derived purified vWF; von Willebrand factor
Experimental: ELISA tests were performed as previously reported1. In brief, ELISA plates (med-binding, Greiner Bio-One) were coated with 50 nM GFs at 37° C. for 2 hrs. […] Then, HRP conjugated goat anti-rabbit antibody (Jackson ImmunoResearch) was added. After 60 min of incubation, 50 μL TMB substrate (Sigma-Aldrich) was added. The reaction was stopped by adding 25 μL of 2N H2SO4. Subsequently, the absorbance at 450 nm was measured and subtracted the absorbance at 570 nm.

laminin-111 = target: T8, laminin-111 (human, UniProt P25391 18-3075; P07942 22-1786; P11047 34-1609); assay: ELISA, GF coated, laminin 10 nM
T8 construct: Full-length recombinant human laminin isoform (BioLamina); Chain composition is read from the isoform name
Experimental: (§3) ELISA tests were performed as previously reported. In brief, ELISA plates (med-binding, Greiner Bio-One) were coated with 50 nM GFs at 37° C. for more than 2 hrs. […] Bound laminin was detected with rabbit anti-human laminin γ1 chain antibody (1:1000 dilution, Assay biotech) or rabbit anti-human laminin α3 chain antibody (1:1000 dilution, Assay biotech). After incubation with biotinylated anti-rabbit antibody for 60 min at room temperature (RT), HRP conjugated streptavidin (Jackson ImmunoResearch) was added. After 60 min of incubation at RT, 50 μL TMB substrate (Sigma-Aldrich) was added. The reactions were stopped by adding 25 μL of 2 N H₂SO₄. Subsequently, the absorbance at 450 nm was measured with a reference of 570 nm.

laminin-511 = target: T9, laminin-511 (human, UniProt O15230 36-3695; P07942 22-1786; P11047 34-1609); assay: ELISA, GF coated, laminin 10 nM
T9 construct: Full-length recombinant human laminin isoform (BioLamina); chains read from the isoform name
Experimental: as §3

laminin-332 = target: T10, laminin-332 (human, UniProt Q16787 28-1724; Q13751 18-1172; Q13753 22-1193, limits assumed); assay: ELISA, GF coated, laminin 10 nM
T10 construct: Full-length recombinant human laminin isoform (BioLamina); chains read from the isoform name
Experimental: as §3

laminin-521 = target: T11, laminin-521 (human, UniProt O15230 36-3695; P55268 33-1798; P11047 34-1609); assay: ELISA, GF coated, laminin 10 nM
T11 construct: Full-length recombinant human laminin isoform (BioLamina); chains read from the isoform name
Experimental: as §3

laminin-421 = target: T12, laminin-421 (human, UniProt Q16363 25-1823; P55268 33-1798; P11047 34-1609); assay: ELISA, GF coated, laminin 10 nM
T12 construct: Full-length recombinant human laminin isoform (BioLamina); chains read from the isoform name
T12 sequence (Q16363 25-1823 limits assumed, chain 1 of 3): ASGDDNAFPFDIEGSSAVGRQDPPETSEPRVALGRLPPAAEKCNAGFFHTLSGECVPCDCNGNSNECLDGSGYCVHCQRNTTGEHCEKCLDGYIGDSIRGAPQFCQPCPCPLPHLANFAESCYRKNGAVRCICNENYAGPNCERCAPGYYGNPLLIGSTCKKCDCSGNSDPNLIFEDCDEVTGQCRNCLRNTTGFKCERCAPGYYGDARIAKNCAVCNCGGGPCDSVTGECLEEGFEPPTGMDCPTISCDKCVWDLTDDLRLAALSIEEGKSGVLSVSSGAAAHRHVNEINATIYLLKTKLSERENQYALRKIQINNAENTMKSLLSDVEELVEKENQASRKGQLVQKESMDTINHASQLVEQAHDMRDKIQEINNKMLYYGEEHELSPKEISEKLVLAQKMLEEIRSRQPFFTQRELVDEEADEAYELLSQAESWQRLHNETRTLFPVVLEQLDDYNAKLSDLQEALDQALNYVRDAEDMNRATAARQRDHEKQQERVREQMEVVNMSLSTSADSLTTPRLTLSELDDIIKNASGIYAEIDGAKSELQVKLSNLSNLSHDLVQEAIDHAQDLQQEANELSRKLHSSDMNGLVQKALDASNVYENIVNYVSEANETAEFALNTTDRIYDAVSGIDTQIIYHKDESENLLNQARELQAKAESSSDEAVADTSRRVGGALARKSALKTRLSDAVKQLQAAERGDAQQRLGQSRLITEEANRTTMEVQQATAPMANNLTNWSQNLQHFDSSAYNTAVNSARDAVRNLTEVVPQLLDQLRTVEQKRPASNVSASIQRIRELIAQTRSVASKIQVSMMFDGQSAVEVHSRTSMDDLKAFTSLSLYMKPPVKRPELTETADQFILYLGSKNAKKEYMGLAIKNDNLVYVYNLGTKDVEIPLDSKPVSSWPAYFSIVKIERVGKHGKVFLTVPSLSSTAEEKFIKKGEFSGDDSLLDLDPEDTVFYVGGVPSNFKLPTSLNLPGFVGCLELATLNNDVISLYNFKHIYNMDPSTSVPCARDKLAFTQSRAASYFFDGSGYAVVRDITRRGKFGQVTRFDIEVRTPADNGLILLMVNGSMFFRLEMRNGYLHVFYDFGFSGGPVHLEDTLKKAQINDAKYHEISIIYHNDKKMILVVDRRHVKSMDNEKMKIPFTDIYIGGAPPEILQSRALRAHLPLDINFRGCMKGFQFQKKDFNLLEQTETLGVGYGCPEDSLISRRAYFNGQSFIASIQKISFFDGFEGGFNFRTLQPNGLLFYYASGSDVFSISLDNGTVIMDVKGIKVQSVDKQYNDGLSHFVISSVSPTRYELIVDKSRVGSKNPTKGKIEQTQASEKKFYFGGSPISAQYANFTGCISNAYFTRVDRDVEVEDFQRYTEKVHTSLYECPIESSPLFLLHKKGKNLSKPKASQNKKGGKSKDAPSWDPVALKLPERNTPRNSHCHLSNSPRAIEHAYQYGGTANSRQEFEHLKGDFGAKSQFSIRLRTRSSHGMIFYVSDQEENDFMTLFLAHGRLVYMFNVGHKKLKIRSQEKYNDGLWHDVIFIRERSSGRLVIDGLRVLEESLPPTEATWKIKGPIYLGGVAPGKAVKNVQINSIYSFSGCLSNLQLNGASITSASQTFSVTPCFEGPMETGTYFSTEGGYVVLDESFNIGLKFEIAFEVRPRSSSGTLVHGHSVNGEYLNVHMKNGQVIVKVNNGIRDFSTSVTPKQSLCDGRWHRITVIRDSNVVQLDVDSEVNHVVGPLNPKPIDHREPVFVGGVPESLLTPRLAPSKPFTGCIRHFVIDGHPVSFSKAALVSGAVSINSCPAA
T12 sequence (P55268 33-1798 limits assumed, chain 2 of 3): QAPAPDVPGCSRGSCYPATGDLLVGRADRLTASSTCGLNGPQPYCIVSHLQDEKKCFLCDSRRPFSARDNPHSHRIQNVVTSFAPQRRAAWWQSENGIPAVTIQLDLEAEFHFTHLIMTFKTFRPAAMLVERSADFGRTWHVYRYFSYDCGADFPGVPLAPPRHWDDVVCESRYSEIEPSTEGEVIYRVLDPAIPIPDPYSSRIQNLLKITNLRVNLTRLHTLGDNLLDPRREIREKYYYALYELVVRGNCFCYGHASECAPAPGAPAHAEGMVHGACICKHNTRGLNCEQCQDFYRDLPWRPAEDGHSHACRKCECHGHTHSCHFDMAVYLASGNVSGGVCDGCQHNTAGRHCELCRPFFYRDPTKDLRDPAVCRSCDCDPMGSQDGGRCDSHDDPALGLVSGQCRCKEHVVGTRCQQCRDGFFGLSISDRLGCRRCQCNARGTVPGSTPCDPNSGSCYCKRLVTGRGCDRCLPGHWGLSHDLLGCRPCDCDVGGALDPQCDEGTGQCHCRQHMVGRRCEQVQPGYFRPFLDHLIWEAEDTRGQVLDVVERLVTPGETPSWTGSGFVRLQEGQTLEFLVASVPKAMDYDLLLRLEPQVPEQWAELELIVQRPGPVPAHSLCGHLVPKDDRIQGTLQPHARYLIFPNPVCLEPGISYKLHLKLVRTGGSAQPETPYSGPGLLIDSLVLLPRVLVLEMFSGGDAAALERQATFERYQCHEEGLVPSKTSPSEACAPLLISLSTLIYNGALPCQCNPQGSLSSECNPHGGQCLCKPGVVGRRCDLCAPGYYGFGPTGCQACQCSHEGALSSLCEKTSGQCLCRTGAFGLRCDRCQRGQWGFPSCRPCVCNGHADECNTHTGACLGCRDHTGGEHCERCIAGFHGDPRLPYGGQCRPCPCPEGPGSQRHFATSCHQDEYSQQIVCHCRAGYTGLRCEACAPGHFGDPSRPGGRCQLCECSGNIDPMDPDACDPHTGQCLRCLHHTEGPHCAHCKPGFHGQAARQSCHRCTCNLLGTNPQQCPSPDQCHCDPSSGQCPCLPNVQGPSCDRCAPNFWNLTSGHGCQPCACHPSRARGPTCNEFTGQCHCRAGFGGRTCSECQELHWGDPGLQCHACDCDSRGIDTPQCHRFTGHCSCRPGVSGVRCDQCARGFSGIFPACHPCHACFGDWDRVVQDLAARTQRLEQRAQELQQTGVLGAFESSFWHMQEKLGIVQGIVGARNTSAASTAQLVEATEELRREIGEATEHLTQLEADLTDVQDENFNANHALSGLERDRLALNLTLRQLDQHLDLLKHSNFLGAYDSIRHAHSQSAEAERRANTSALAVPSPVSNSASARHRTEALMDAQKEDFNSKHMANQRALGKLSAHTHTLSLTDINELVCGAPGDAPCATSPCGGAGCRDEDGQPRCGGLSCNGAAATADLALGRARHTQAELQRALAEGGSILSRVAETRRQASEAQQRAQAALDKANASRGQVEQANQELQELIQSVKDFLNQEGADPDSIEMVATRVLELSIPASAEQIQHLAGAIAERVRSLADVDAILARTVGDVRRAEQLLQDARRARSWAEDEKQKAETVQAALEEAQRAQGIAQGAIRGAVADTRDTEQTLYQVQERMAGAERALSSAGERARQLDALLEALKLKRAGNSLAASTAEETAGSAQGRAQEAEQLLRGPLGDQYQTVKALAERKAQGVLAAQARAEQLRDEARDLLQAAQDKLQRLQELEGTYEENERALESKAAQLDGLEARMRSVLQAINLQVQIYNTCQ
T12 sequence (P11047 34-1609 limits assumed, chain 3 of 3): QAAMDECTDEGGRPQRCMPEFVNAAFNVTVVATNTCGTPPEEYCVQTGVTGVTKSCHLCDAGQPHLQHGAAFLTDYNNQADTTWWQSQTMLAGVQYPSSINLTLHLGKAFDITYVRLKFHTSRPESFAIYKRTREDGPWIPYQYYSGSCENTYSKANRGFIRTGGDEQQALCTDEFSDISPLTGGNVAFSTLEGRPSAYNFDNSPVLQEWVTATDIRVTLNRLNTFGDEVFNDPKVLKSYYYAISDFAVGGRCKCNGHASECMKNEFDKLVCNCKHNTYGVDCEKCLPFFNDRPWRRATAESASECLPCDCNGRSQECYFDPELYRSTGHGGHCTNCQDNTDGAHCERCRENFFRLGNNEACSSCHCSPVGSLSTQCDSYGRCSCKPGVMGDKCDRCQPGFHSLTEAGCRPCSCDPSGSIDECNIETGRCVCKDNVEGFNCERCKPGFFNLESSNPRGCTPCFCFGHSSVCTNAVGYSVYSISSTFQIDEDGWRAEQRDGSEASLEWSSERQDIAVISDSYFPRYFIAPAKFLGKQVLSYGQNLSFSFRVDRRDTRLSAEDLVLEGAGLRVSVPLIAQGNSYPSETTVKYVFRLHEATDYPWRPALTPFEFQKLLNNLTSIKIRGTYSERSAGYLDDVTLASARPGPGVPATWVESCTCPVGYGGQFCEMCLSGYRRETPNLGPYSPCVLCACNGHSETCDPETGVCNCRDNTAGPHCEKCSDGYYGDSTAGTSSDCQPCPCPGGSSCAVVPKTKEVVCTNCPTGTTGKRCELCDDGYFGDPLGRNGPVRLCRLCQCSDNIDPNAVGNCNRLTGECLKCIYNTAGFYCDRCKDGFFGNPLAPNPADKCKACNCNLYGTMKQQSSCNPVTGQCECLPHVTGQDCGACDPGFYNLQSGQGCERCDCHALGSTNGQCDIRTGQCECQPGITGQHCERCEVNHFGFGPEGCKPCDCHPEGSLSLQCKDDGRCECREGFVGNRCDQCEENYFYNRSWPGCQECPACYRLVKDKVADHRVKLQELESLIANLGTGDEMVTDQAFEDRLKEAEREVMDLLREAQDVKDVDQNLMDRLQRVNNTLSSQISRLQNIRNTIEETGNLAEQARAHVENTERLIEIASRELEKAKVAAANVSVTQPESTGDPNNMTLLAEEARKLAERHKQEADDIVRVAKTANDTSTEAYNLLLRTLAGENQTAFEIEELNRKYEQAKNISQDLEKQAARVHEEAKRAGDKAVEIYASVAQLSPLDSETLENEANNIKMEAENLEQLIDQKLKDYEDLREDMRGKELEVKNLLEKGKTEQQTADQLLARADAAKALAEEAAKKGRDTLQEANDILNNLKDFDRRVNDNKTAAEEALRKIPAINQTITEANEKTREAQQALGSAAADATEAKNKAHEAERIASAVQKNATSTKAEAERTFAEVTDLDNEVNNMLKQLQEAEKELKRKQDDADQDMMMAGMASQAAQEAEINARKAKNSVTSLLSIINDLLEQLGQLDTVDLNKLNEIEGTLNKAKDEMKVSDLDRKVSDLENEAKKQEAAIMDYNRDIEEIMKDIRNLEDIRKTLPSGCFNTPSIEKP
Experimental: as §3

laminin-211 = target: T13, laminin-211 (human, UniProt P24043 23-3122; P07942 22-1786; P11047 34-1609); assay: ELISA, GF coated, laminin 10 nM
T13 construct: Full-length recombinant human laminin isoform (BioLamina); chains read from the isoform name
Experimental: as §3

laminin-411 = target: T14, laminin-411 (human, UniProt Q16363 25-1823; P07942 22-1786; P11047 34-1609); assay: ELISA, GF coated, laminin 10 nM
T14 construct: Full-length recombinant human laminin isoform (BioLamina); chains read from the isoform name
Experimental: as §3

[8] = target: T15, recombinant human vWF A1 domain (human, UniProt P04275 1261-1468, limits assumed); assay: ELISA; recombinant vWF A1 domain coated (10 µg/mL, legend paragraph 67), GF in solution, detected with anti-VEGF-A antibody [panel B]
T15 construct: domain: A1; also called vWF A1 recombinant protein; recombinant A1 domain
Experimental: (§4) FIGS. 18A-C. […] Bound GFs were detected using a specific antibody for each GF (n=4, mean±SD). Statistical analyses were done using ANOVA with Tukey's test or Student's t-test. *p<0.05, **p<0.01.
(§5) ELISA tests were performed as described above. […] After blocking with 2% BSA solution containing PBS-T, 1 μg/mL of the recombinant human proteins VEGF-A121, VEGF-A165, PlGF-1, PlGF-2, PDGF-BB, FGF-2, CXCL-12α and CXCL-12γ were added. 1 μg/mL of BSA served as non-binding protein control. Bound GF or chemokine was detected with biotinylated antibodies for human VEGF-A, PlGF, PDGF-BB, FGF-2, or CXCL-12 (R & D Systems). The antibodies were detected by streptavidin-HRP (R & D Systems). Color development and the absorbance measurement were done as described above.

[9] = target: T15, recombinant human vWF A1 domain; assay: ELISA; recombinant vWF A1 domain coated (10 µg/mL, legend paragraph 67), GF in solution, detected with anti-PlGF antibody [panel B]
Experimental: as §4, §5

Binder	binding result [1]	binding result [2]	binding result [3]	binding result [4]	binding result [5]	binding result [6]	binding result [7]	binding result (human plasma-derived vWF)	binding result (laminin-111)	binding result (laminin-511)	binding result (laminin-332)	binding result (laminin-521)	binding result (laminin-421)	binding result (laminin-211)	binding result (laminin-411)	binding result [8]	binding result [9]
B1	no binding (tested: 1 µg/mL VEGF-A121 (single concentration))	no binding (tested: 1 µg/mL VEGF-A145 (single concentration))	no binding (tested: 1 µg/mL VEGF-A165 (single concentration))														
B2				no binding (tested: 1 µg/mL VEGF-A121 (single concentration))	no binding (tested: 1 µg/mL VEGF-A121 (single concentration))	no binding (tested: 1 µg/mL VEGF-A121 (single concentration))	no binding (tested: 1 µg/mL)	no binding	no binding (tested: A450 0.1)	no binding (tested: A450 0.1)	no binding (tested: A450 0.1)	no binding (tested: A450 0.1)	no binding (tested: A450 0.1)	no binding (tested: A450 0.1)	no binding (tested: A450 0.1)	no binding (tested: 1 µg/mL VEGF-A121 (single concentration))	
B3							no binding (tested: 1 µg/mL)	no binding	no binding (tested: A450 0.1)	no binding (tested: A450 0.1)	no binding (tested: A450 0.1)	no binding (tested: A450 0.1)	no binding (tested: A450 0.1)	no binding (tested: A450 0.1)	no binding (tested: A450 0.1)		no binding (tested: 1 µg/mL PlGF-1 (single concentration))
